# Publication PMC10747570
# Biological target: Hibiscus green spot virus movement protein BMB2 (Hibiscus green spot virus)
# Experiment: FRET or BRET; FRET-FLIM: GFP fluorescence lifetime measured in PAMBs of N. benthamiana leaf cells coexpressing BMB2-GFP (donor) and BMB2-mRFP (acceptor), 3 dpi; control without acceptor: BMB2-GFP with non-fused BMB2
substance,measurement,value
Hibiscus green spot virus movement protein BMB2 (natural protein),FRET efficiency,69.8%
same,GFP excited-state lifetime with the acceptor,0.74 ns
